A short description of the series: soluble on expression in E. coli; label from the status in PepcDB or PDB records.
With “MYRAWDPSLTTIDSFLVNELLLHAHPTKTPPEVTEGQTPSSSSSSSTDSGRETMLEEEEAACCDLDSELARIGDENTAEIRELCLPLEIDSRCNLCAIVSICLRRDPQQKWLLDYCFLCHKCAAAPRTAMATLIVATEFLHLMKLHFRDIAFDNIFKERIVTIFDFHAHFFINRCYTQRDEHPVMVENITLAHMAVTRALLTDDDAVPYTKRRKIQYKLPKKPAPAEPEELRLLDKYRRATEGSFARVLFYIWSGTNVMFNTTLTDLAIKKSKALKALKTRQSEIEPSVGPVFLSPIPTFRLRNATTTVCLLCELMACSYRDNVFLQQLRERITNYSRNNLKIIDRTQLTMAEILSHGRNSEFPQQLKNKDVSIYVTSSPETLAAASRPGTEEPFELSALTYLVLRQVGVIGVYKHLFADPLCAANMRSTDPNILFFDVPNEYLNEAKLAICSTNAYPSRVERDFWLYAHMFKAFQIIKRNFKTKTQLSDFLRDFSQVLESHDFSLVDPSFTVEKYV”, the “soluble on expression in E. coli” value was “not soluble”.

Consider “MYSFPNSFRFGWSQAGFQSEMGTPGSEDPNTDWYKWVHDPENMAAGLVSGDLPENGPGYWGNYKTFHDNAQKMGLKIARLNVEWSRIFPNPLPRPQNFDESKQDVTEVEINENELKRLDEYANKDALNHYREIFKDLKSRGLYFILNMYHWPLPLWLHDPIRVRRGDFTGPSGWLSTRTVYEFARFSAYIAWKFDDLVDEYSTMNEPNVVGGLGYVGVKSGFPPGYLSFELSRRAMYNIIQAHARAYDGIKSVSKKPVGIIYANSSFQPLTDKDMEAVEMAENDNRWWFFDAIIRGEITRGNEKIVRDDLKGRLDWIGVNYYTRTVVKRTEKGYVSLGGYGHGCERNSVSLAGLPTSDFGWEFFPEGLYDVLTKYWNRYHLYMYVTENGIADDADYQRPYYLVSHVYQVHRAINSGADVRGYLHWSLADNYEWASGFSMRFGLLKVDYNTKRLYWRPSALVYREIATNGAITDEIEHLNSVPPVKPLRH”, for which the “soluble on expression in E. coli” value was “soluble”. On to “MYSGARQGVISGKVTHHNEVFYEFFDKDYKYLFGKVKDIFTDVGAWVEYNVEKVQSHPKNCLHFAQNVNTEVKRTNAPTCDVFSSNRFQFDVREFNKVDFFQFDNADRQLSFKGTIRFNSNKNQFYHEYYGDVLVGEAEKLIRFGINEIDVMMNLYRSDEYTRGPHWYVKHYINKGKSYNINGYLSINGFVLRGPGGVVRNKNQVNIPPDALRPNNPVPNLSNGTSSQELAAAPNRNNFPTYATQRPRRNSDWDDEEPQTTAAPAGTSNSTAAASRPQVGDGKTGFRAFGGDAAPQSRGFDDGAIQRRAFGGLTTAPAAAPNRNNFPTYATQRPRRNSDWDDEDPQTTAAPAGTFNSAAASFRPQVGNGKAGSRAFGGDTAPQRSGLDDGATQRRAFEGLTIAPAAASNRNSFPTFATQRPRRNSDWGDEEPETTVAPAGKSNSTAAASRPQVGNGKTGSRPFGGDTAPQRRGLDDGAIQRRAFGGLTTAPAAAPNQNNFPTFATQRPRRNSDWDDEEPQATDAPAGTFNSAAASFRPQVGNGKAGSRAFGGDTAPQTSGLDDGAIERRAFGALATAPREVVLGGERAAGQLRPRGPESTIQPRRVPQSRQFGGVSATSNDPTTPEPRRINETPRVLLPPQSKGRRVDS”, for which the “soluble on expression in E. coli” value is listed as “not soluble”.

For “MYSKIEGSIITARFDKETDFFTDLVDLCNKYEVKSGTVLWAIGMLKEFQIGYWNGNDYEKETFRERLELVSLHGSIAENDPRFHIHAAGARGNHGIVGGHLFSAKVDPLVEIQIMKITGFSMSRELDNSDGLYKLVIKLEHHHHHH”, the “soluble on expression in E. coli” value is “not soluble”. The entry for “MYTIQANPSGTRSIEVSSENLKTIEKYALFRHLIDSTGIVDEPVLDKLKLNIRSLIASQEEDSKELLDLCIDVIYHNNMKAFGLQQLIKLYLTWLSTQDAEEEEE” is “soluble”; for “MYVSSPTLTDKVSKMICQDILTGELKPGQKLVVAELKEKYNVGASPIREALVQLSWSKYVKLAPQKGCWVAPVCKHELNDLYESLRMTASFLLKKAIMTGDENWELDVLTSYHKLSRVNLDQGFCWREWEERHYHFLEALLEGANSHNLFTFFRDILNQIKRYHYFAMQVLGTNNQGHCNIDEQEMIMKLSLSKNSDDAVQFLDRYLLKSLQCVETAIDNPL” it is “soluble”; for “MYYHALKLSRLAMLTLAGVAVSASAIAADSAPTSQIGPTAEAYIVSHPDKVGEVVATYLAEHPEFLVAASETLHQRQQIAQQQAYVQLALQYRAELLSSSSPSVGPNEAKAAVVMFFDYQCSWCSKMAPVVENLIKANPDTRFIFKEFPIFSSRWPVSGLAARVGEQVWLTQGGAKYLDWHNALYATGKVEGALTEHDVYTLAQHYLTPTQLAAVKEAQSSGAVHDALLTNQALAQHMDFSGTPAFVVMPQTQDGDVKRVTVIPGSTTQDMLQMAIQKAKG” it is “not soluble”. Turning to “NAIMDLQTRNTRGLSTLVVRDIGELMMAGDMAVIERYVADVRGKGAVLDLRIYDAAGRPAGKKQDAPDGEVQAALTSGATAEKRHKVDGRHVLSFIVPLANEVRCQSCHEQGARFNGAMLLTTSLEEGYAGARN”, the “soluble on expression in E. coli” value is given as “soluble”. In the case of “NALRRDPNLPVHIRGWLHKQDSSGLRLWKRRWFVLSGHCLFYYKDSREESVLGSVLLPSYNIRPDGPGAPRGRRFTFTAEHPGMRTYVLAADTLEDLRGWLRALGRASRAEGDDYGQPRSPAR” it was “soluble”; in that of “NATNRRDTVLAAMVDAGKLTKSQAKEAASIGMKNRLADTYAGKINDYRYPSYFDAVVNEAIDTYGISEKDIVNNGY”, “not soluble”; in that of “NDRFSWDTQFNISTIKNKLTSLIDEKPIPVGNHVLQVGQPIGSFYMYKMDGIYQDNQEVPEKLYAKGVRAGDIKYADKDNDGDLTPADKEIVGKPLPDFFGGLTNRFRYGNFDLTIFNTFSVGNDVYATGMGGIDAVGHNNYGMRKDIAANRWTGPGTNNSIPRAMISTHNTQASTYLLHDGSYFKFKDVTLGYTLPSNLTQKLNISNMRVYLSAQNLWTISSYPGYDPEVSYSVNNSKTMGEDAMTVPQLRTFVCGFNLTF”, “not soluble”. The entry for “NGAQAFVSAQTSTIPKTAFTAHDFVDYTLPQEQKGKEQKEQQWMKNSQTKDTDVHPYADFAVLEILLFPDSSTDRKIFNHFIQPAIRAYKQLGDSLNIFANQTLDQPKHNRYYLLGYPFLRNKAASLFLNQTEQR” is “soluble”.

For the sequence “NGYEALIMTHSAVTDPPLMIRSADNSLIKADDKTLLTALEAEGIGSYSFILTGEGLVKTKYRQQAVSLMGVDDRYPRTVKIDSIVFAGTFATDTLSGATALNVGAAIATEMQLGAGFVEAVEVIVPRRIGLINPLVPAGAFKSLQGQVASVFASGLQPEDNSIILSIDSLRKLLDYSDHEAEAVAIQLRTGSDAEQIALRLKETLGDSYQVLDLAGQHPEITHLIAMEKWMS”, the “soluble on expression in E. coli” value was “not soluble”. The entry for “NIEQGLYAMLGVYVSSKTIDVVQVGFNRSKMALIITKQEQAVKEAVLQKIDRGVTKISAVGGYTDDDRPILMCVVGQTEFTKLKQIVKQIDESAFVIVADASEVLGEGFKRA” is “not soluble”. In the case of “NKFECNLVHSKVPMGKFYFRSEPNNKISFISDIRGEGKEWQGATLISQNAPWGEELYRKVESSLTVTKPSRRFVFRKGAPSLMKAIAGGSWITLVLEGKDASALSEVRIPTIQIQKALGEFNACRERLPK”, the “soluble on expression in E. coli” value is given as “not soluble”.

On to “NKNFSWNVNFNLTHFKNKVLELSPELNGQLIDGARIYREDESMYQLYLPKYVGVDSETGESLWALVTPDENGNTVTKSYSVASENRFASGDILPKVYGGFGTSVTAYGFDLSVSFAYQLGGRILDYTYQGLMDVAATGSALHKDMLKAWTPENKNTDVPRMNINDQYTNRLTDRFLTSSDYLSLQNITLGYTLPKSLTRKMQIDGVRVFFVADNVALLTARKGLDPRQGYVAADNVYSPIRTISGGISLNF”, for which the “soluble on expression in E. coli” value was “not soluble”.

The record behind these values is the DeepSol protein solubility set.
